Source: patent US20090060916A1 (published 2009)
Substitutions are numbered along the chain they refer to. “And” between values parts separate entries of the source, which are not always exact repeats. Identical values can stand only once. Each block holds one binder with its values, some of them ahead of it.

Columns and labels:
[1] = target: T1, human IL-13 (human, UniProt P35225 35-146, biotinylated on the Biacore chip); test: IL-13 receptor I RBA: FMAT beads, IL-13R alpha1/Fc
T1 construct: also called hIL-13; recombinant human IL-13
Description: (§1) The plate was incubated for seven hours before being read in the 8200 cellular detection system (Applied Biosystems).
This molecule was PEGylated via the C terminus using PEG-Maleimide with a branched 40K PEG2-MAL moiety.

[2] = target: T1, human IL-13; test: cell-based or functional assay
[3] = target: cynomolgous IL-13 (cynomolgous, UniProt Q0PW92 19-132, The Biacore assay used biotinylated cIL-13 according to our card. The biotin cannot be carried in the letters.); test: cell-based or functional assay
[4] = target: T1, human IL-13; test: IL-13 sandwich ELISA, competition with coating antibody
Description: A MAXISORP™ plate (high protein binding ELISA plate, Nunc, Denmark) was coated overnight with 2.5 μg/ml coating antibody (Module Set, Bender MedSystems, Vienna, Austria), then washed once with 0.05% (v/v) Tween 20 in PBS before blocking with 0.5% (w/v) BSA 0.05% (v/v) Tween 20 in PBS. […] The plate was then incubated with TMB substrate (KPL, Gaithersburg, USA), and the reaction was stopped by the addition of HCl and the absorbance read at 450 nm.

[5] = target: T1, human IL-13; test: cell-based or functional assay; remark: listed apart in the source
[6] = target: T1, human IL-13; test: IL-13 receptor I RBA: FMAT beads, IL-13R alpha1/Fc; remark: listed apart in the source
Description: as §1

[7] = target: T1, human IL-13; test: assay not named ('Potency IC50')
[8] = target: T1, human IL-13; test: cell-based or functional assay; remark: listed apart in the source
[9] = target: T2, human IL-4 (human, UniProt P05112 25-153, biotinylated in the receptor binding assay and on the Biacore chip); test: cell-based or functional assay
T2 sequence (looked up): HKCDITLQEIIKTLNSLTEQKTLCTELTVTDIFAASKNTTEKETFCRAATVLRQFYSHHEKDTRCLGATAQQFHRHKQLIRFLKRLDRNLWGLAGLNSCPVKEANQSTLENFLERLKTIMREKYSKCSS

[10] = target: T3, rhesus IL-4 (rhesus, UniProt P51492 25-153); test: inferred from TF-1 proliferation with rhesus IL-4
T3 sequence (looked up): T2 sequence (looked up) with K2N, D4H, T6A, Q8R, K12E, E26K, V29I, F33L, N111D
Description: The mixture was incubated for 72 hours at 37° C. 5% CO₂. […] 96® reagent (colorometric reagent for determining viability, Promega, Madison, USA) was then added and the number of cells per well was quantified by measuring the absorbance at 490 nm.
A dose-response of the dAb will determine the ND50 in this set up.

T1 sequence (P35225 35-146 limits assumed): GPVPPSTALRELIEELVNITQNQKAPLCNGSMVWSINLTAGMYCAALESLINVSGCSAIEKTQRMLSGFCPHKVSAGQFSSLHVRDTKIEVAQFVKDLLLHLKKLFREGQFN
Chain of cynomolgous IL-13 (Q0PW92 entry or part of it limits assumed, form in doubt): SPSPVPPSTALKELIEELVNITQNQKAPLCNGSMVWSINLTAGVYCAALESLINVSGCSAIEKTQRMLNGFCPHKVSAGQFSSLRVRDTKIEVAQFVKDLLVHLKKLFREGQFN

B1: DOM10-53-343 40K PEG2 MAL (other)
VH: EVQLLESGGGLVQPGGSLRLSCAASGFIFAWYDMGWARQAPGKGLEWVSSIDWHGEVTYYADSVKGRFTISRDNSKNTLYLQMNSLRAEDTAVYYCATAEDEPGYDYWGQGTLVTVSSC
modifications: branched 40K PEG2-MAL on the C-terminal cysteine
IC50 [1]: 0.033 nM

B4: DOM10-53-234 (other)
VH: GVQLLESGGGLVQPGGSLRLSCAASGFIFAWYDMGWARQAPGKGLEWVSSIDWHGNVTYYADSVKGRFTISRDNSKNTLYLQMNSLRAEDTAVYYCATAEDEPGYDYWGQGTLVTVSS
notes: VH dAb
IC50 [4]: 0.087 nM and 0.081 nM and 0.04 nM | ND50, IL-13 induced TF-1 cell proliferation [5]: 43 nM

B5: DOM10-53 (other)
VH: B4 VH with I28T, W53D, H54S, N56T, V57Q, D101R, E102D, P103D, G104T, Y105F
notes: VH dAb
IC50 [6]: 150 nM | IC50 [7]: 100 nM

B6: DOM10-53-338 40K PEG2 NHS (other)
VH: B4 VH with G1E, H54R
modifications: 40K PEG2-NHS on surface lysine residues (positions not stated)
notes: also called 40K PEGylated DOM10-53-338 dAb
IC50 [1]: 0.226 nM | IC50, IL-13 induced TF-1 proliferation [8]: 0.231 nM

B7: DOM10-53-338 30K PEG ALD (other)
VH: B4 VH with G1E, H54R
modifications: 30K PEG-ALD on the N-terminus (alpha-amino group)
notes: also called 30K PEGylated DOM10-53-338 dAb
IC50 [1]: 0.169 nM | IC50, IL-13 induced TF-1 proliferation [8]: 0.181 nM

B8: DOM10-53-338 (other)
VH: B4 VH with G1E, H54R
notes: VH dAb
IC50 [1]: 0.387 nM | IC50, IL-13 induced TF-1 proliferation [8]: 0.423 nM

B9: DOM9-155-11 (other)
VL: DIQMTQSPSSLSASVGDRVTITCRASRNIGDWLHWYQQKPGKAPKLLIAWASTLDSGVPSRFSGSGSGTDFTLTISSLQPEDFATYYCLQEGWGPPTFGQGTKVEIKR
average inhibition of HDM induced PBMC proliferation, 100 nM dAb, responding donors [9]: 34%

B16: DOM9-112-22 (other)
VH: EVQLLESWGGLVQPGGSLRLSCAASGFTFRNYGMAWVRQAPGKGLEWISWIDASGTETYYADPVKGRFTISRDNSKNTLYLQMNSLRAEDTAVYYCAKSLGRFDYWGQGTLVTVSS
average inhibition of HDM induced PBMC proliferation, 100 nM dAb, responding donors [9]: 23%

Continued, values first:

EC50, HEK293 STAT6 SEAP reporter assay, hIL-13 [2]: 2.8 nM | EC50, HEK293 STAT6 SEAP reporter assay, cIL-13 [3]: 2.5 nM
B2: DOM10-275-100 (other)
VH: GVQLLESGGGLVQPGGSLRLSCAASGFTFDSAEMDWVRQAPGKGLEWVSTISPSRRGTYYADSVKGRFTISRDNSKNTLYLQMNSLRAEDTAVYYCAKAYTGRSYWGPGTLVTVSS

EC50, HEK293 STAT6 SEAP reporter assay, hIL-13 [2]: 3.6 nM and 2 nM | EC50, HEK293 STAT6 SEAP reporter assay, cIL-13 [3]: 1.8 nM
B3: DOM10-275-101 (other)
VH: B2 VH with A23V, S31V, Y105L

binding result [10]: binds
B10: DOM9-155-5 (other)
VL: B9 VL with R27L, N28D
notes: Vk dAb

IC50 [6]: 100 nM
B11: DOM10-176 (other)
VL: DIQMTQSPSSLSASVGDRVTITCRASQWIGPYLNWYQQKPGKAPKLLIYMGSYLQSGVPSRFSGSGSGTDFTLTISSLQPEDFATYYCQQDLYPPYTFGQGTKVEIKR
notes: Vk dAb

IC50 [6]: 600 nM
B12: DOM10-273 (other)
VH: EVQLLESGGGLVQPGGSLRLSCAASGFTFELEEMDWVRQAPGKGLEWVSSISGSGGSTYYADSVKGRFTISRDNSKNTLYLQMNSLRAEDTAVYYCAKAYTGFDYWGQGTLVTVSS
notes: VH dAb

IC50 [6]: 3000 nM
B13: DOM10-276 (other)
VH: B12 VH with E30R, L31D, E32Y, S52G, G53P, G56S, S57E, G102S
notes: VH dAb

IC50 [6]: 1000 nM
B14: DOM10-275 (other)
VH: B12 VH with E30D, L31R, S50T, G53P, G56R, S57K, A99H, Y100G
notes: VH dAb

IC50 [6]: 6000 nM
B15: DOM10-416 (other)
VH: B12 VH with E30K, L31G, E32S, S50T, G53A, S54D, G56R, S57E, A99S, G102S
notes: VH dAb
